Measured values published in patent publication EP4595979A1 (SystImmune, Inc., dated 2024).

T1: Trop2 (human, UniProt P09758 27-323)
T1 sequence (looked up): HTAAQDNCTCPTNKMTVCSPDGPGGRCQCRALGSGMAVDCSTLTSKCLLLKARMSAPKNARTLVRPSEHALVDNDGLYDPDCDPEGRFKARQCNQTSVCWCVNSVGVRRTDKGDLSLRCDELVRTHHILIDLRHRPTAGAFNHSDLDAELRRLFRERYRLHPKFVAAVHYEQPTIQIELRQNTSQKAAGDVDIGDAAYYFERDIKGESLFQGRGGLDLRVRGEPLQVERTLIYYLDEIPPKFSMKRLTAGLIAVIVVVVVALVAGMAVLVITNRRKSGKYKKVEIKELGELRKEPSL


molecular target: T1, Trop2; experiment: cell-based or functional assay

Binder	IC50 (nM), in vitro cytotoxicity (120h), MTS cell viability, A431 cells (Trop2 positive) [nM]	IC50 (nM), in vitro cytotoxicity (120h), MTS cell viability, BxPC-3 cells (Trop2 positive) [nM]	IC50 (nM), in vitro cytotoxicity (120h), MTS cell viability, NCI-N87 cells (Trop2 positive) [nM]
ADC-1-1a (antibody, human IgG1, kappa, DAR 7.59, linker-payload LP-1a on a cysteine thiol of the reduced interchain disulfide (general step A); residue not stated; linker-payload LP-1a (auristatin E derivative) on cysteine thiols of the fully reduced interchain disulfides (general step A); residues not stated; average DAR 7.59) heavy: not shown light: DIQMTQSPSSLSASVGDRVTITCRASQDINKYLAWYQQKPGKVPKLLIYSTSTLQSGVPSRFSGSGSGTDFTLTISSLQPEDVATYYCLQYDDLFTFGQGTKLEIKRTVAAPSVFIFPPSDEQLKSGTASVVCLLNNFYPREAKVQWKVDNALQSGNSQESVTEQDSKDSTYSLSSTLTLSKADYEKHKVYACEVTHQGLSSPVTKSFNRGEC	0.01	0.02	0.36
ADC-1-2a (antibody, human IgG1, kappa, DAR 1.79, linker-payload LP-1a conjugated site-specifically after partial reduction (general step B), average DAR 1.79; chain and residue not stated) heavy: not shown light: DIQMTQSPSSLSASVGDRVTITCRASQDINKYLAWYQQKPGKVPKLLIYSTSTLQSGVPSRFSGSGSGTDFTLTISSLQPEDVATYYCLQYDDLFTFGQGTKLEIKRTVAAPSVFIFPPSDEQLKSGTASVVCLLNNFYPREAKVQWKVDNALQSGNSQESVTEQDSKDSTYSLSSTLTLSKADYEKHKVYACEVTHQGLSSPVCTKSFNRGEC	0.05	0.25	2.6
ADC-2-2a (antibody, human IgG1, kappa, DAR 1.81, linker-payload LP-2a conjugated site-specifically after partial reduction (general step B), average DAR 1.81; chain and residue not stated) heavy: not shown light: DIQMTQSPSSLSASVGDRVTITCRASQDINKYLAWYQQKPGKVPKLLIYSTSTLQSGVPSRFSGSGSGTDFTLTISSLQPEDVATYYCLQYDDLFTFGQGTKLEIKRTVAAPSVFIFPPSDEQLKSGTASVVCLLNNFYPREAKVQWKVDNALQSGNSQESVTEQDSKDSTYSLSSTLTLSKADYEKHKVYACEVTHQGLSSPVCTKSFNRGEC	0.11	0.46	4.7
ADC-C-2a (antibody, human IgG1, kappa, DAR 1.85, VcMMAE conjugated site-specifically after partial reduction (general step B), average DAR 1.85; chain and residue not stated) heavy: not shown light: DIQMTQSPSSLSASVGDRVTITCRASQDINKYLAWYQQKPGKVPKLLIYSTSTLQSGVPSRFSGSGSGTDFTLTISSLQPEDVATYYCLQYDDLFTFGQGTKLEIKRTVAAPSVFIFPPSDEQLKSGTASVVCLLNNFYPREAKVQWKVDNALQSGNSQESVTEQDSKDSTYSLSSTLTLSKADYEKHKVYACEVTHQGLSSPVCTKSFNRGEC	0.32	0.87	4.9
ADC-2-1a (antibody, human IgG1, kappa, DAR 7.31, one linker-payload LP-2a on each light chain, maleimide partly ring-opened; residue not stated; linker-payload LP-2a (MMAE derivative) on cysteine thiols of the fully reduced interchain disulfides (general step A); residues not stated; average DAR 7.31) heavy: not shown light: DIQMTQSPSSLSASVGDRVTITCRASQDINKYLAWYQQKPGKVPKLLIYSTSTLQSGVPSRFSGSGSGTDFTLTISSLQPEDVATYYCLQYDDLFTFGQGTKLEIKRTVAAPSVFIFPPSDEQLKSGTASVVCLLNNFYPREAKVQWKVDNALQSGNSQESVTEQDSKDSTYSLSSTLTLSKADYEKHKVYACEVTHQGLSSPVTKSFNRGEC	0.005	0.02	0.35
ADC-C-1a (antibody, human IgG1, kappa, DAR 7.34, VcMMAE on a cysteine thiol of the reduced interchain disulfide (general step A); residue not stated; VcMMAE (MC-VC-PAB-MMAE) on cysteine thiols of the fully reduced interchain disulfides (general step A); residues not stated; average DAR 7.34) heavy: not shown light: DIQMTQSPSSLSASVGDRVTITCRASQDINKYLAWYQQKPGKVPKLLIYSTSTLQSGVPSRFSGSGSGTDFTLTISSLQPEDVATYYCLQYDDLFTFGQGTKLEIKRTVAAPSVFIFPPSDEQLKSGTASVVCLLNNFYPREAKVQWKVDNALQSGNSQESVTEQDSKDSTYSLSSTLTLSKADYEKHKVYACEVTHQGLSSPVTKSFNRGEC	0.02	0.04	0.63
